Measured values taken from US20220125947A1 (published 2022).

B1: VG9B469 (antibody, human IgG1, kappa, V domains shown)
VH: EVQLVESGGGLVKPGGSLRLSCAASGFTFSHYDMNWVRQAPGKGLEWVSSISSSSSYIFYADSVKGRFTISRDNAKNSLLLQMNSLRAEDTAVYHCARDRGVGDTSDYYSFGLDVWGQGTMVTVSS
VL: DIVMTQSPGTLSLSPGERATLSCRASQNVSSTYLAWYQQKPGQAPRLLIYGACSRATGIPDRFSGSGSGTDFTLTISRLEPEDYAVYYCQQYGSSPPYTFGRGTKLEIKR
B2: VG9B198 (antibody, human IgG1, lambda, V domains shown)
VH: QVQLQESGPGLVKPSETLSLTCTVSGDSISSIYWSWIRQSAGKGLEWIGRIYTTDITNYNPSLKSRVTMSADTSKNQLSLKLTSVTAADTAVYYCAKNGYSYGGFNYWGQGTLVTVSS
VL: QSVLTQPPSVSGAPGQRVTISCTGSSSNIGAGYDVHWYQRLPGTAPKLLIYGDSYRPSGVPDRFSGSKSGTSASLAITGLQAEDEADYYCQSYDSSLSVVVFGGGTKLTVLG
B3: VG9B463 (antibody, human IgG1, lambda, V domains shown)
VH: EVQLVESGGGLVKPGGSLRLSCSASGFTFSNYDMNWVRQAPGKGLEWVSSISSSSSYIYYADSVKGRFTISRDNAKNSLYLQMNSLRAEDTAVYHCARDVGVTTDYYYYGMDVWGQGTTVTVSS
VL: QPVLTQSSSASGTPGQRVTISCSGSSSNIGSNTVNWYQQFPGTAPKLLIYTNTQRPSGVPDRFSGSKSGTLVSLAISGLQSEDEADYYCAAWDDSLNAWVFGGGTKLTVLG
B4: VG9B413 (antibody, human IgG1, kappa)
heavy: not shown
light: EIVMTQSPGTLSLSPGDRATLSCRASQSVASSYLAWYQQKPGQSPRLLIYGASSRATGIPDRFSGSGSGTDFTLTISRLEPEDFAVYYCQQYGSSPPYTFGQGTKVEIKRTVAAPSVFIFPPSDEQLKSGTASVVCLLNNFYPREAKVQWKVDNALQSGNSQESVTEQDSKDSTYSLSSTLTLSKADYEKHKVYACEVTHQGLSSPVTKSFNRGEC
B5: VG9B403 (antibody, human IgG1, kappa)
heavy: not shown
light: DIVMTQSPGTLSLSPGDRATLSCRASQSVASSYLAWYQQKPGQSPRLLIYGASSRATGIPDRFSGSGSGTDFTLTISRLEPEDFAVYYCQQYGSSPPYTFGQGTKVEIKRTVAAPSVFIFPPSDEQLKSGTASVVCLLNNFYPREAKVQWKVDNALQSGNSQESVTEQDSKDSTYSLSSTLTLSKADYEKHKVYACEVTHQGLSSPVTKSFNRGEC
B6: VG9B402 (antibody, human IgG1, kappa)
heavy: not shown
light: DIQMTQSPSSVSASVGDRVTITCRASQGINSWLAWYQQKPGNAPKLLIYAASSLQSGVPSRFSGIGSGTDFIFTISSLQPEDFASYYCQQANSFPWTFGQGTKVDIKRTVAAPSVFIFPPSDEQLKSGTASVVCLLNNFYPREAKVQWKVDNALQSGNSQESVTEQDSKDSTYSLSSTLTLSKADYEKHKVYACEVTHQGLSSPVTKSFNRGEC
B7: VG9B137 (antibody, human IgG1, kappa, V domains shown)
VH: EVQLVESGGGLVKPGGSLRLSCAAFGITFSSYSMDWVRQAPGRGLEWVSSIGSSSSYIFYADSVKGRFTISRDNAKNSLYLQMNSLRAEDTAVYYCATSYSWNYGGAFDIWGQGTMVTVSS
VL: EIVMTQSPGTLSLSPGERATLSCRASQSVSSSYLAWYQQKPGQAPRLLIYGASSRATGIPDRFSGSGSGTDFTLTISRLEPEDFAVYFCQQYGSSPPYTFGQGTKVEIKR
B8: VG9B191 (antibody, human IgG1, lambda, V domains shown)
VH: EVQLVQSGGGLVKPGGSLRLSCAASGFTFSRYSMNWVRQAPGKGLEGVSSISSSSSYIYYADSVKGRFTISRDNAKNSLYLQMNSLRAEDTAVYYCARDGPTVNWDYYFDLWGRGTLVTVSS
VL: QSVLTQPPSVSAAPGQKVTISCSGSSSNIGNNYVSWYQQLPGTAPKLLIYDNNKRPSGIPDRFSGSKSGTSATLGITGLQTGDEADYYCGTWDSSLSTSVVFGGGTKLTVLG
B9: VG9B67 (antibody, human IgG1, kappa, V domains shown)
VH: EVQLVESGGGLVKPGGSLRLSCAASGFTFSSYTMNWVRQAPGKGLEWVSSISSSSSYIDYAESVKGRFTISRDNAKNSLYLQMNSLRAEDTAVYYCARDGDILATIRGSFDYWGQGTTVTVSS
VL: DIVMTQTPLSLPVTPGEPASISCRSSQSLLDSDAGNTYLDWYLQKPGQSPQLLIYTLSYRASGVPDRFSGSGSGTDFTLKISRVEAEDVAIYYCMQRIEFPITFGQGTKVEIKR
B10: VG9B127 (antibody, human IgG1, kappa, V domains shown)
VH: QVQLVESGGGLVKPGGSLRLSCTASGFTFGAYTMNWVRQAPGKGLEWVSSISSSSSYIDFAESVKGRFTISRDNAKNSLYLQMISLRAEDTAVYYCARDGDIVSTIRGSFDYWGQGALVTVSS
VL: EIVMTQSPLSLPVTPGEPASISCRSSQSLLDSDDGNTYLDWYLQKPGQSPQLLIYTLSYRASGVPDRFSGSGSGTDFTLKISRVEAEDVGIYYCMQRIEFPITFGQGTKVEIKR
B11: VG9B44 (antibody, human IgG1, kappa, V domains shown)
VH: QVQLQQSGPGLVKPSQTLSLTCAISGDSVSSNSAAWNWIRQSPSRGLEWLGRTYYRSKWYNDYPISVKSRISINPDTSKNQFSLQLNSVTPEDTAVYYCARESGSYYTDGFDIWGQGTMVTVSS
VL: DIQMTQSPSFLSASVGDRVTITCRASQGISSYLAWYQQKPGKAPKLLIYAASTLQSGVPSRFSGSGSGTEFTLTISSLQPEDFATYYCQEFNSYPYTFGQGTKLEIKR
B12: VG9B36 (antibody, human IgG1, kappa, V domains shown)
VH: QVQLVESGGGLVKPGGSLRLSCASSGFTFSSYGMYWVRQAPGKGLEWVSSISTGSSYIYYADSVKGRFTISRDNAKNSLYLQMNSLRAEDTAVYYCARDKGLAVTGYIMDVWGQGTTVTVSS
VL: EIVLTQSPSSLSASVGDRVTITCQASQDISNYLNWYQQKPGKAPKLLIYDASNLETGVPSRFSGSGSGTDFTFTISSLQPEDIAIYYCQQYDNLPMYTFGQGTKVEIKR
B13: VG9B162 (antibody, human IgG1, lambda, V domains shown)
VH: QVQLVESGAEVTKPGASVKVSCKASGYTFTGDYMHWVRQAPGQGLEWMGWINPNSGYTNYAQKFQGRVTMTRDTSISTAYMELSRLRSDDTAVYYCAREGDAFDVWGQGTMVTVSS
VL: QLVLTQSSSASGSPGQSVTISCTGTSSDVGGYNYVSWYQQHPGKAPKLMIYEVSKRPSGVPDRFSGSKSGNTASLTVSGLQAEDEADYYCNSYAGSNNFEVFGGGTKLTVLG
B14: VG9B384 (antibody, human IgG1, lambda, V domains shown)
VH: QVQLQESGPALVKPTQTLTLTCTFSGFSLSSSGMCVSWIRQPPGKALEWLTLIDWFDDKYYSTSLKTRLTISKDTSKNQVVLTMTNMDPVDTATYYCARIRGTGAYYYGLDVWGQGTMVTVSS
VL: SYELMQPPSVSVSPGQTASITCSGNELGDKYASWYQQQPGQSPVLVIYQDNKRPSGIPERFSGSNSGNTATLTISGTQAMDEADYYCQAWDSSKVVFGGGTKLTVLG
B15: VG9B33 (antibody, human IgG1, kappa, V domains shown)
VH: EVQLVESGGGLVKPGGSLRLSCAASGFTFSSYNMNWVRQAPGKGLEWVSSISTSSSYIYYADSVKGRFTISRDNAKNSLYLQMNGLRAEDTAVYYCARDTSVTKYPDTFDIWGQGTMVTVSS
VL: DIVMTQSPSSLSASVGDRVTITCRASQDINNYLAWFQQKPGKVPNLLIYGASTLQSGVPSRFTGSGSGTDFTLTISSLQPEDVATYYCQKYNSAPFTFGPGTKVDIKR

Molecular target: T1, T cell receptor (TCR) Vγ9 (TRGV9) (human, UniProt Q99603 21-122)
T1 chain (looked up): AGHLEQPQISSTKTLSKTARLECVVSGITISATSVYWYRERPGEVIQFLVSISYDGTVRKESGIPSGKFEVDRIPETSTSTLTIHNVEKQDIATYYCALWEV
Test: cell-based or functional assay
For CD25+ (Vg9+ cells), flow staining in this document: test concentration or dose not given here.
For CD71+ (Vg9+ cells), flow staining in this document: test concentration or dose not given here.
For Granzyme B, Luminex (supernatant) in this document: unit not given here.
For IL6, Luminex (supernatant) in this document: unit not given here.
For TNFα, Luminex (supernatant) in this document: unit not given here.

Point of comparison: B2, “CD25+ (Vg9+ cells), flow staining” value 23%. Against it:
- B1 — higher, 29.9%
- B3 — higher, 26%

Point of comparison: B1, “CD71+ (Vg9+ cells), flow staining” value 98.5%. Against it:
- B2 — lower, 91.2%
- B3 — lower, 87.4%

Point of comparison: B3, “Granzyme B, Luminex (supernatant)” value 965. Against it:
- B1 — higher, 3700
- B2 — higher, 1100

Point of comparison: B2, “IFNγ, Luminex (supernatant)” value 324. Against it:
- B1 — higher, 1580
- B3 — higher, 364

Point of comparison: B2, “IL6, Luminex (supernatant)” value 199. Against it:
- B1 — higher, 440
- B3 — lower, 100

Point of comparison: B1, “TNFα, Luminex (supernatant)” value 173. Against it:
- B2 — lower, 66
- B3 — higher, 2110

Point of comparison: B1, “Vg9 T cell %, flow staining” value 7.8%. Against it:
- B2 — lower, 3.6%
- B3 — lower, 4.1%

Molecular target: T2, T cell receptor (TCR) Vγ9 (TRGV9) (human, UniProt Q99603 21-122)
T2 chain (looked up): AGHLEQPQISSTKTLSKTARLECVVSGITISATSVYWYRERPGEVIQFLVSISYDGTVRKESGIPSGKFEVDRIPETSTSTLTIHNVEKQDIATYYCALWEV
Test: cell-based or functional assay

Point of comparison: B5, “CD25+ (Vg9+ cells), flow staining” value 36.2%. Against it:
- B4 — higher, 44.9%
- B6 — higher, 45.5%
- B7 — lower, 8.7%
- B8 — higher, 42.4%
- B9 — lower, 28.5%
- B10 — higher, 37.3%
- B11 — higher, 45.4%
- B12 — lower, 29.1%
- B13 — lower, 9.7%
- B14 — lower, 26.4%
- B15 — lower, 28%

Point of comparison: B14, “CD71+ (Vg9+ cells), flow staining” value 89.9%. Against it:
- B4 — higher, 98.8%
- B5 — higher, 97.5%
- B6 — higher, 99.1%
- B7 — lower, 77.3%
- B8 — higher, 93.6%
- B9 — lower, 87.4%
- B10 — higher, 96.5%
- B11 — higher, 98.8%
- B12 — lower, 89.4%
- B13 — lower, 70.3%
- B15 — higher, 95.2%

Point of comparison: B15, “Granzyme B, Luminex (supernatant)” value 1990. Against it:
- B4 — higher, 5800
- B5 — higher, 3020
- B6 — higher, 4500
- B7 — lower, 36
- B8 — higher, 3370
- B9 — higher, 2550
- B10 — higher, 2450
- B11 — higher, 3030
- B12 — higher, 3890
- B13 — lower, 481
- B14 — higher, 2300

Point of comparison: B15, “IFNγ, Luminex (supernatant)” value 749. Against it:
- B4 — higher, 2830
- B5 — higher, 1390
- B6 — higher, 2370
- B7 — lower, 44
- B8 — higher, 1380
- B9 — higher, 972
- B10 — higher, 1170
- B11 — higher, 1150
- B12 — higher, 2580
- B13 — lower, 57
- B14 — higher, 1100

Point of comparison: B5, “IL6, Luminex (supernatant)” value 175. Against it:
- B4 — higher, 1960
- B6 — higher, 433
- B7 — lower, 8
- B8 — higher, 400
- B9 — higher, 365
- B10 — higher, 348
- B11 — higher, 587
- B12 — higher, 607
- B13 — lower, 54
- B14 — higher, 610
- B15 — higher, 240

Point of comparison: B10, “TNFα, Luminex (supernatant)” value 709. Against it:
- B4 — lower, 229
- B5 — lower, 102
- B6 — lower, 376
- B7 — lower, 30
- B8 — higher, 7320
- B9 — lower, 144
- B11 — lower, 198
- B12 — lower, 188
- B13 — lower, 329
- B14 — higher, 3740
- B15 — lower, 85

Point of comparison: B4, “Vg9 T cell %, flow staining” value 13.3%. Against it:
- B5 — lower, 7.2%
- B6 — lower, 9.5%
- B7 — lower, 3.6%
- B8 — lower, 5.2%
- B9 — higher, 14%
- B10 — lower, 11.2%
- B11 — higher, 14.4%
- B12 — lower, 7.8%
- B13 — lower, 2.7%
- B14 — lower, 3.4%
- B15 — higher, 14%
